Measured values published in US20120321619A1 (Bayer, published 2012).

T1: murine C4.4a on transfected CHO-S:mC4.4a cells (mouse, UniProt Q91YK8 33-343)
T1 construct: full length GPI-anchored form, stably transfected; also called Mouse C4.4a:CHO; mC4.4a: CHO
T1 sequence: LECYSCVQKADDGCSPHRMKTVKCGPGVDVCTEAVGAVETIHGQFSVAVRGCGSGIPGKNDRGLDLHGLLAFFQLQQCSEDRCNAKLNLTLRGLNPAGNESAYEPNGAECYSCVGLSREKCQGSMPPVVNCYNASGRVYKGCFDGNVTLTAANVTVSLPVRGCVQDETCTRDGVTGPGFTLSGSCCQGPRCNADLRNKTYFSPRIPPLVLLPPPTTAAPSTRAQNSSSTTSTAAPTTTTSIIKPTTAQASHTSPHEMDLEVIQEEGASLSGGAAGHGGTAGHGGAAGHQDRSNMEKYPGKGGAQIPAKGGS

T2: human C4.4a natively expressed on tumor cell lines (human, UniProt O95274 31-326)
T2 construct: whole, on cells; also called NCI H292; NCI H322
T2 sequence (looked up): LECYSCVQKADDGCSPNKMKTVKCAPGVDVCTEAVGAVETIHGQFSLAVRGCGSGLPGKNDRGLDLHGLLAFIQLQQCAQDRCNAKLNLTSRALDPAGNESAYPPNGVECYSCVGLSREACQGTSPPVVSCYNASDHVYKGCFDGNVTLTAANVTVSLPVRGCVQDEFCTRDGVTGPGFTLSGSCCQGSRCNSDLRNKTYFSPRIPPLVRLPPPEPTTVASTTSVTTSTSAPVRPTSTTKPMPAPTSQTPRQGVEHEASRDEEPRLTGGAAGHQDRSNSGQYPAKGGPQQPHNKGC

T3: human C4.4a on transfected A549:hC4.4a cells (human, UniProt O95274 31-326)
T3 construct: full length GPI-anchored form, stably transfected; also called C4.4a:A549
T3 sequence: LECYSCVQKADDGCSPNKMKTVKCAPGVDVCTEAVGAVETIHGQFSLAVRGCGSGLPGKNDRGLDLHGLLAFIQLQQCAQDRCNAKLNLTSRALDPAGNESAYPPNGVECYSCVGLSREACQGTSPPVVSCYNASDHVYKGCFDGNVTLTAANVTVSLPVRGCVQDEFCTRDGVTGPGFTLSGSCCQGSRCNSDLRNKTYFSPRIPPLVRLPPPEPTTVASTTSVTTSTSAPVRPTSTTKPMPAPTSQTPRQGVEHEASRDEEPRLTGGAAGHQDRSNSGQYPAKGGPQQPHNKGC


How the values were obtained:
[1] = target: T1, murine C4.4a on transfected …; assay: FACS titration of IgG1 on CHO-S:mC4.4a cells
[2] = target: T2, human C4.4a natively expressed on tumor …; assay: FACS titration on NCI H322 cells (native C4.4a), IgG1 format, phycoerythrin-labelled goat anti-human IgG detection
Description: (§1) FACS titration was performed in a 96 well microtiter plate, in which serial dilutions of the primary antibody in a volume of 50 W of FACS buffer (3% FCS, in PBS) were mixed with 50 μl of a cell suspension consisting of 2×10^5 cells/ml which had been detached with Cell Dissociation Solution (1×) Non-enzymatic (Sigma), and resuspended in FACS buffer. Incubation was performed at 4° C. for 1 hour with agitation. Cells were pelleted, washed with FACS buffer and resuspended in 100 μl/well of Phycoerythrin labeled goat anti human IgG (Dianova) solution in FACS buffer. Incubation and washing was performed as before. Analysis of cell-bound antibodies was done at the respective detection wavelength using the FACS Array device. EC₅₀ values were determined from fluorescence medians of duplicates using Swift 8.0 software.

[3] = target: T3, human C4.4a on transfected A549:hC4.4a …; assay: FACS titration on transfected A549:hC4.4a cells (printed 'A549:C4.4a'), IgG1 format, phycoerythrin-labelled goat anti-human IgG detection
Description: as §1

[4] = target: T2, human C4.4a natively expressed on tumor …; assay: FACS titration on BxPC3 cells (native C4.4a), IgG1 format, phycoerythrin-labelled goat anti-human IgG detection
Description: as §1

hC4.4a domain S2-Fc-his6 = target: T4, hC4.4a domain S2-Fc-his6 (human, UniProt O95274 138-223); assay: western blot of purified S2-Fc-6×HisTag fusion
T4 construct: C-terminal human IgG1 Fc-6×HisTag fusion from HEK293 6E cells; also called S2 Fc-6×HisTag; domain S2 of C4.4a
Description: The SDS gel was then blotted to a iblot gel transfer membrane (Invitrogen IB3010-02) using an iBlot device (Invitrogen). The membrane was blocked in DPBS pH 7.4+4% milk powder+0.1% Tween 20 for 16 h at 4° C., followed by three washing steps for 5 min at 20° C. in DPBS pH 7.4+0.1% Tween 20. M31-B01 (5.76 mg/ml) or M20-D02 S-A (3.49 mg/ml) were applied in dilutions of 1/5000 and 1/2000 respectively and incubated for 1.5 h at 20° C., followed by 2× washes in DPBS pH 7.4+0.1% Tween 20. The second antibody (alk. Phosphatase. Conjugate Goat anti human IgG, Fab specific; 109-055-097 Jackson ImmunoResearch) was incubated at a dilution of 1/1000 for 1.5 h at 20° C. Followed by 3 washing steps for 5 min at 20° C. in DPBS pH 7.4+0.1% Tween 20. Staining was performed with Sigma Fast BCIP/NBT/1 tablet in 10 ml water at 20° C. till the bands became visible. Staining reaction was stopped by washing with water.

| Binder | EC50 [1] [nM] | EC50 [2] [nM] | EC50 [3] [nM] | EC50 [4] [nM] | binding result (hC4.4a domain S2-Fc-his6) |
| --- | --- | --- | --- | --- | --- |
| M31-B01 (antibody, human IgG1, V domains shown, tested as human IgG1) VH: EVQLLESGGGLVQPGGSLRLSCAASGFTFSNAWMSWVRQAPGKGLEWVSYISSSGSTIYYADSVKGRFTISRDNSKNTLYLQMNSLRAEDTAVYYCAREGLWAFDYWGQGTLVTVTS VL: QSVLTQPPSASGTPGQRVTISCTGSSSNIGAGYVVHWYQQLPGTAPKLLIYDNNKRPSGVPDRFSGSKSGTSASLAISGLRSEDEADYYCAAWDDRLNGPVFGGGTKLTVLG | 1.9 | 0.3 | 1.9 | 0.3 | no binding |
| M20-D02 S-A (antibody, human IgG1, V domains shown, tested as human IgG1) VH: EVQLLESGGGLVQPGGSLRLSCAASGFTFSDYQMTWIRQTPGKGLEWVSGVSWNGARTHYADSVKGRFTISRDNSKNTLYLQMNSLRAEDTAVYYCAKGDYLVYSAYYFDSWGQGTLVTVTS VL: not shown | 1.6 | 1.2 | 4.3 | 1 | no binding |
